Measured values published in the supplement of paper PMC12042874.
± gives the uncertainty stated by the source.

Assay: amyloid nucleation score (Sup35N fusion, yeast selection) (log enrichment); library NNK1; higher = more nucleation; inactive = no reads after selection
Procedure, shortened: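 Yeast lacking psi expressed peptides of 20 random codons fused to Sup35N, received 100 μM copper sulfate for 24 hours, and were then grown for 7 days at 30°C on medium lacking adenine and uracil. Illumina sequencing of input and output plasmid inserts provided the reads. Nucleation scores are DiMSum log enrichments of output over input, centred on the mode of non-aggregating sequences. Any sequence with under 100 input reads was excluded.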

Substance | amyloid nucleation score
GHWDTVGIR | -0.292 ± 0.28
GHYVDLKSLYPPMTCAMACM | -0.125 ± 0.38
GIAAYNGDLWMRLCYL | -0.255 ± 0.88
GIAVHGMLDRMVSRRGLRAW | 0.387 ± 0.97
GIFNYWRYYMVDV | 0.673 ± 0.29
GIGVKSEGHVINDFYKLRER | 0.002 ± 0.45
GIKRHIEDCLV | 1.04 ± 0.46
GILDTLKVEVLGSVVHS | 1.01 ± 0.59
GIPSKTFDVCSSPNIKSILF | 0.317 ± 1.2
GKENSVTGHRGYSDVAVGMQ | 0.286 ± 1.4
GKFDSGYVKGTVHNEAEFQP | -0.223 ± 0.31
GKPLTTVVAIIF | 3.56 ± 0.11
GKSCGHFWGRLNEGGQKLRV | -0.772 ± 0.64
GKSLLKSYCIRMPLFSRNTL | inactive
GLALHGIEWVCCVQDQSFDR | 7.08 ± 0.071
GLGDVKNHEFNHVDAEGSGR | -0.741 ± 0.83
GLGWHFTL | -0.407 ± 0.28
GLIMYPRGYMCKSIT | 0.813 ± 0.43
GLIQYPGFIASMYPSDNTSC | 0.135 ± 0.41
GLKMFKMCLCNMALDIF | 7.428 ± 0.073
GLLNTYS | 0.626 ± 1.2
GLLRAA | 0.296 ± 0.27

Substance | amyloid nucleation score
GLMVHRDFGIECLQHETHFG | 0.074 ± 0.26
GLMWKAN | 0.537 ± 0.67
GLNALSFNQV | -0.383 ± 0.48
GLPLNA | inactive
GLPLYVHVAVEVIWL | 0.058 ± 0.65
GLQEVCWC | -1.67 ± 2.4
GLRKYVKPVYSMCVFFLKWA | 1.02 ± 0.58
GLSIQ | 0.288 ± 0.44
GLSWYCGHLAKR | 1.48 ± 0.49
GLVIELNPFKSLLSSPWVFF | 0.335 ± 0.71
GLVNLADTGTVVDPSKGWLG | -0.441 ± 0.61
GLVSQPFWCSYKCGGHNHKG | 0.314 ± 1.4
GLYLNGPVINMWVVVASREV | 7.512 ± 0.044
GMAHDWSRQWVRVSDAVLLR | -0.004 ± 0.6
GMDLQVMSHCASIHNNS | -0.199 ± 0.37
GMVSIII | 0.276 ± 0.51
GNCPNQIGAYVVKIIRMPAL | -0.311 ± 0.55
GNLRNMLMTYSSSVGNKLIF | -0.344 ± 0.57
GNNRCDVIIMVFFK | 1.7 ± 0.12
GNRGSSKV | inactive
GNSVIDRSFGIFNCYEGLSC | 1.62 ± 0.72
GNVLDFCPWLVGLLCHGGGV | 0.149 ± 0.35

Substance | amyloid nucleation score
GNWLSS | -0.082 ± 0.9
GPFSDVAGQKVRCGRLVATR | -0.212 ± 0.66
GPRVSPVKFIVRLGQVNLDR | 0.448 ± 0.61
GQHSFGAECTVQSCGWGCRW | 1.33 ± 0.34
GQRSLT | -0.088 ± 0.24
GRAFG | -0.557 ± 2.1
GREMYRLLHLNVEYTHGTRY | 3.79 ± 0.075
GRFFVHEVGMFQTSGQ | -0.187 ± 1.3
GRGHREPIVKDAAGRLGSWS | -0.421 ± 0.94
GRGKPMTLASKFIAGRFVF | 0.521 ± 0.97
GRGTGAVFVYVEWSLYGN | -0.036 ± 0.47
GRHRRSRRM | inactive
GRLVVGIREGIIS | 0.058 ± 0.35
GRMAGMFWNCGGCMEMDSVC | 1.14 ± 0.68
GRMLLM | -1.25 ± 1.1
GRQGYMAYFVMALLLCIFTH | 0.128 ± 0.48
GRRGKWVSSPWGGELKTCSK | 4.24 ± 0.084
GRRVFGRYVQINNGPISRFF | 0.266 ± 1.1
GRSLAFTSYCLMKGLTSVSV | -0.383 ± 0.29
GRSRTRTRLLPGSEGGYDRP | -1.64 ± 0.98
GRTAQAVRGGRAVVYAGLKL | -0.157 ± 0.36
GRVKINKNLSVYKYINFRDS | 2.04 ± 0.21

Substance | amyloid nucleation score
GRVQL | 0.405 ± 0.48
GSALIE | 1.5 ± 0.74
GSCSYSYCTNFVRTMYGAYG | 0.379 ± 0.71
GSDVREWLVQQSKSMFLWVW | -0.226 ± 0.47
GSEFQVLSFF | 0.419 ± 0.58
GSLIIHHQWFFVIAMRVSLS | 0.419 ± 0.53
GSRFPFLVVDMCSSELVKR | 0.577 ± 0.63
GSRHFRDSVLSDVNVWYLKN | -0.026 ± 0.35
GSRNCIWLFFVVWV | inactive
GSRSQCAPSQFLAAGTHNKF | -1.17 ± 0.84
GSSENRFF | inactive
GSSKWISSHRVIDDFSYKRG | 0.406 ± 0.49
GTFALIN | -1.2 ± 0.68
GTFDSN | 0.045 ± 0.46
GTFVEISRYIDGCHLVFGNR | 2.38 ± 0.16
GTGHVFQCCRMTLLQSSLDG | -0.832 ± 0.88
GTKNLCDYIWPGPPGSVVRN | -0.159 ± 0.56
GTMTRWWFVVCTEKTAGTNR | 0.374 ± 0.44
GTNWDMLCYIVLTYGVVRAF | -0.116 ± 0.51
GTTSVSAINGR | -0.545 ± 0.8
GTTVPGFCITKSVKTMGRNQ | 0.643 ± 0.39
